Experiments:
ADI-22523 Fab = biological target: T1, ADI-22523 Fab; test: BLI; tip anti-ID IgG, solution ADI-22523 Fab
T1 construct: anti-CD3 Fab by papain digestion of the IgG
Procedure, shortened: (§1)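 Bio-layer interferometry with anti-ID IgG loaded on AHC tips. KD (koff/kon) from 1:1 binding model fit; avid format.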

ADI-22523 IgG = biological target: T2, ADI-22523 IgG; test: BLI; tip anti-ID IgG, solution ADI-22523 IgG
T2 construct: anti-CD3 IgG
Procedure, shortened: as §1

ADI-76357 = biological target: T3, ADI-76357; test: SPR Carterra avidity, yeast anti-ID
T3 construct: anti-CD3 antibody made in CHO cells, captured by anti-human Fc
T3 sequence (VH, as listed by the source, chain 1 of 2): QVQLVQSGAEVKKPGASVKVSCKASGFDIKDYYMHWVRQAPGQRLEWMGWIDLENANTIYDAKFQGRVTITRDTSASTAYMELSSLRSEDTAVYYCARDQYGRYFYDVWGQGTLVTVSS
T3 sequence (VL, as listed by the source, chain 2 of 2): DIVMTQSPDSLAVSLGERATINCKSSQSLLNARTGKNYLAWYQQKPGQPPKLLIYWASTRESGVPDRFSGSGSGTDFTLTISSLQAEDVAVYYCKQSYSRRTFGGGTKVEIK
Procedure, shortened: (§2)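 Goat anti-human Fc was amine-coupled to an HC30M sensor chip, then anti-CD3 antibodies at 100 nM were flowed over discrete spots for 5 min. Anti-idiotype antibodies were run in non-regenerative kinetic cycles at 25° C in HBSTE, with 300s dissociation. Blank-subtracted sensorgrams were fitted 1:1.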

ADI-76358 = biological target: T4, ADI-76358; test: SPR Carterra avidity, yeast anti-ID
T4 construct: anti-CD3 antibody made in CHO cells, captured by anti-human Fc
T4 sequence (VH, as listed by the source, chain 1 of 2): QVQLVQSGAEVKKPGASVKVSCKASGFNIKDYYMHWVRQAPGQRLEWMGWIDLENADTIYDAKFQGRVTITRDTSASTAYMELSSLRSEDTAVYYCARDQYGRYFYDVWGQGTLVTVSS
Procedure, shortened: as §2

ADI-26916 IgG = biological target: T5, ADI-26916 IgG; test: SPR Carterra avidity, yeast anti-ID
T5 construct: anti-CD3 IgG
T5 sequence (VH, as listed by the source, chain 1 of 2): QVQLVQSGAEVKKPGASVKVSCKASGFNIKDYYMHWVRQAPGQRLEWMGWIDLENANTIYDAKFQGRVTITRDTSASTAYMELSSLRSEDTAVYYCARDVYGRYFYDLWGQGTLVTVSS
Procedure, shortened: as §2

ADI-70330 = biological target: T6, ADI-70330; test: SPR Carterra avidity, yeast anti-ID
T6 construct: anti-CD3 antibody made in CHO cells, captured by anti-human Fc
Procedure, shortened: as §2

ADI-74966 = biological target: T7, ADI-74966; test: SPR Carterra avidity, yeast anti-ID
T7 construct: pH-dependent anti-CD3 antibody made in CHO cells
Procedure, shortened: as §2

ADI-26906 IgG = biological target: T8, ADI-26906 IgG; test: SPR Carterra avidity, yeast anti-ID
T8 construct: anti-CD3 IgG
T8 sequence (VH, as listed by the source limits assumed, chain 1 of 2): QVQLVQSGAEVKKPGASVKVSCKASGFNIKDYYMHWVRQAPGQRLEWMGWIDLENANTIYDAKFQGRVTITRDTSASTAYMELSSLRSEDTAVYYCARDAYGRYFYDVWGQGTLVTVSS
Procedure, shortened: as §2

ADI-50024 = biological target: T9, ADI-50024; test: SPR Carterra avidity, yeast anti-ID
T9 construct: anti-CD3 antibody made in CHO cells, captured by anti-human Fc
T9 sequence (VH, as listed by the source limits assumed, chain 1 of 2): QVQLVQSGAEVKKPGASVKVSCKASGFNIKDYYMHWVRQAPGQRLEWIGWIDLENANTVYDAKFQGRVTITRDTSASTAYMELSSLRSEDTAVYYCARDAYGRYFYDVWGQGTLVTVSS
T9 sequence (VL, as listed by the source limits assumed, chain 2 of 2): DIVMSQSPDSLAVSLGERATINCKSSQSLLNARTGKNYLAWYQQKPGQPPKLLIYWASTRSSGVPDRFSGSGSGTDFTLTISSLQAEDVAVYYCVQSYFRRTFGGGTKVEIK
Procedure, shortened: as §2

ADI-74968 = biological target: T10, ADI-74968; test: SPR Carterra avidity, yeast anti-ID
T10 construct: pH-dependent anti-CD3 antibody made in CHO cells
Procedure, shortened: as §2

ADI-26913 IgG = biological target: T11, ADI-26913 IgG; test: SPR Carterra avidity, yeast anti-ID
T11 construct: anti-CD3 IgG
T11 sequence (VH, as listed by the source limits assumed, chain 1 of 2): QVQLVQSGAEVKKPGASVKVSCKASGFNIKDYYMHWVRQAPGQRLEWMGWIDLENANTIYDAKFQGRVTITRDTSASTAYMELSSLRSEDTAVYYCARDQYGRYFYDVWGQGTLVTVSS
Procedure, shortened: as §2

CTL-62223 = biological target: T12, CTL-62223; test: SPR Carterra avidity, yeast anti-ID
T12 construct: also called mosunetuzumab
Procedure, shortened: as §2

ADI-48587 = biological target: T13, ADI-48587; test: SPR Carterra avidity, yeast anti-ID
T13 construct: pH-dependent anti-CD3 antibody made in CHO cells
Procedure, shortened: as §2

ADI-70327 = biological target: T14, ADI-70327; test: SPR Carterra avidity, yeast anti-ID
T14 construct: anti-CD3 antibody made in CHO cells, captured by anti-human Fc
Procedure, shortened: as §2

ADI-76360 = biological target: T15, ADI-76360; test: SPR Carterra avidity, yeast anti-ID
T15 construct: anti-CD3 antibody made in CHO cells, captured by anti-human Fc
Procedure, shortened: as §2

ADI-67450 = biological target: T16, ADI-67450; test: SPR Carterra avidity, yeast anti-ID
T16 construct: anti-CD3 antibody made in CHO cells, captured by anti-human Fc
Procedure, shortened: as §2

ADI-70326 = biological target: T17, ADI-70326; test: SPR Carterra avidity, yeast anti-ID
T17 construct: anti-CD3 antibody made in CHO cells, captured by anti-human Fc
Procedure, shortened: as §2

ADI-74967 = biological target: T18, ADI-74967; test: SPR Carterra avidity, yeast anti-ID
T18 construct: pH-dependent anti-CD3 antibody made in CHO cells
Procedure, shortened: as §2

ADI-26919 = biological target: T19, ADI-26919; test: SPR Carterra avidity, yeast anti-ID
T19 construct: anti-CD3 antibody made in CHO cells, captured by anti-human Fc
T19 sequence (VL, as listed by the source limits assumed, chain 2 of 2): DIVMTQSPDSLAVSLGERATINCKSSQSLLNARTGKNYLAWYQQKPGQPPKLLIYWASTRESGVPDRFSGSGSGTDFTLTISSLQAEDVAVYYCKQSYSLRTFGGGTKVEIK
Procedure, shortened: as §2

ADI-76362 = biological target: T20, ADI-76362; test: SPR Carterra avidity, yeast anti-ID, *koff limit
T20 construct: anti-CD3 antibody made in CHO cells, captured by anti-human Fc
Procedure, shortened: as §2

ADI-26921 IgG = biological target: T21, ADI-26921 IgG; test: SPR Carterra avidity, yeast anti-ID, *koff limit
T21 construct: anti-CD3 IgG
T21 sequence (VH, as listed by the source limits assumed, chain 1 of 2): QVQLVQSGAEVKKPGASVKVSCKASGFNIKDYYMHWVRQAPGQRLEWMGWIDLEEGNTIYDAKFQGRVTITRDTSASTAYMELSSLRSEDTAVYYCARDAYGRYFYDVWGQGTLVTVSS
Procedure, shortened: as §2

ADI-76359 = biological target: T22, ADI-76359; test: SPR Carterra avidity, yeast anti-ID, *koff limit
T22 construct: anti-CD3 antibody made in CHO cells, captured by anti-human Fc
T22 sequence (VH, as listed by the source, chain 1 of 2): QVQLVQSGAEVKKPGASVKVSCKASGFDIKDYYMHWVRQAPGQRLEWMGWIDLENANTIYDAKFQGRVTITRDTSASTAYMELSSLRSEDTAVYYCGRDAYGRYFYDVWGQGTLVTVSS
Procedure, shortened: as §2

ADI-26924 = biological target: T23, ADI-26924; test: SPR Carterra avidity, yeast anti-ID, *koff limit
T23 construct: anti-CD3 antibody made in CHO cells, captured by anti-human Fc
T23 sequence (VH, as listed by the source, chain 1 of 2): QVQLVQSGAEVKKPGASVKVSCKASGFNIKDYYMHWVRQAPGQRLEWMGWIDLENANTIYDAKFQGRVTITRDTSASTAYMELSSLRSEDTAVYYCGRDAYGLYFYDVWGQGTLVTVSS
Procedure, shortened: as §2

ADI-67447 = biological target: T24, ADI-67447; test: SPR Carterra avidity, yeast anti-ID, *koff limit
T24 construct: anti-CD3 antibody made in CHO cells, captured by anti-human Fc
Procedure, shortened: as §2

ADI-26909 = biological target: T25, ADI-26909; test: SPR Carterra avidity, yeast anti-ID, *koff limit
T25 construct: anti-CD3 antibody made in CHO cells, captured by anti-human Fc
Procedure, shortened: as §2

ADI-26920 IgG = biological target: T26, ADI-26920 IgG; test: SPR Carterra avidity, yeast anti-ID, *koff limit
T26 construct: anti-CD3 IgG
T26 sequence (VH, as listed by the source limits assumed, chain 1 of 2): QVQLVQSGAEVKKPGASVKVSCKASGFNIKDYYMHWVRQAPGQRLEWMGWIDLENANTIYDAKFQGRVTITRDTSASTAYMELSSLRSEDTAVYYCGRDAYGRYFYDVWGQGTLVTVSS
Procedure, shortened: as §2

ADI-67445 = biological target: T27, ADI-67445; test: SPR Carterra avidity, yeast anti-ID, *koff limit
T27 construct: anti-CD3 antibody made in CHO cells, captured by anti-human Fc
Procedure, shortened: as §2

ADI-26943 = biological target: T28, ADI-26943; test: SPR Carterra avidity, yeast anti-ID, *koff limit
T28 construct: anti-CD3 antibody made in CHO cells, captured by anti-human Fc
Procedure, shortened: as §2

ADI-76361 = biological target: T29, ADI-76361; test: SPR Carterra avidity, yeast anti-ID, *koff limit
T29 construct: anti-CD3 antibody made in CHO cells, captured by anti-human Fc
Procedure, shortened: as §2

ADI-48592 = biological target: T30, ADI-48592; test: SPR Carterra, yeast anti-ID
T30 construct: pH-dependent anti-CD3 antibody made in CHO cells
Procedure, shortened: as §2

CTL-62228 = biological target: T31, CTL-62228; test: SPR Carterra, yeast anti-ID
T31 construct: also called glofitamab
Procedure, shortened: as §2

CTL-62227 = biological target: T32, CTL-62227; test: SPR Carterra, yeast anti-ID
T32 construct: also called odronextamab
T32 sequence (VH, as listed by the source, chain 1 of 2): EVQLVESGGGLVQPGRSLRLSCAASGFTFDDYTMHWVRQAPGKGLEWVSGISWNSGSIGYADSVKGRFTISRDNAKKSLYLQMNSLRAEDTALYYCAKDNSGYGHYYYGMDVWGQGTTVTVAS
T32 sequence (VL, as listed by the source, chain 2 of 2): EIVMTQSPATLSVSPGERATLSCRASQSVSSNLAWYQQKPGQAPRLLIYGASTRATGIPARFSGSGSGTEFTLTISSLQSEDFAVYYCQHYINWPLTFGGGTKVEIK
Procedure, shortened: as §2

ADI-26915 = biological target: T33, ADI-26915; test: SPR Carterra, yeast anti-ID
T33 construct: anti-CD3 antibody made in CHO cells, captured by anti-human Fc
T33 sequence (VH, as listed by the source, chain 1 of 2): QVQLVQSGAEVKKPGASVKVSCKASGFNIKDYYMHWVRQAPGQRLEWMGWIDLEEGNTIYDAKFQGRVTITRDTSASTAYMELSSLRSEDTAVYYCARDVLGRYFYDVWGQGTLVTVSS
Procedure, shortened: as §2

ADI-48576 = biological target: T34, ADI-48576; test: SPR Carterra, yeast anti-ID
T34 construct: pH-dependent anti-CD3 antibody made in CHO cells
T34 sequence (VH, as listed by the source, chain 1 of 2): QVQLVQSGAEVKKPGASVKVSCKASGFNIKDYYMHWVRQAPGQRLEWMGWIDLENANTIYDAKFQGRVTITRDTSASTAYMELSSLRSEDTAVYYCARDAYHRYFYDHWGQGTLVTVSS
T34 sequence (VL, as listed by the source, chain 2 of 2): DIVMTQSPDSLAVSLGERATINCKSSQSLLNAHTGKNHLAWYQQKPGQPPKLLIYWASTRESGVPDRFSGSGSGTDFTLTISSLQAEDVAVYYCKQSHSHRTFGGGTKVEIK
Procedure, shortened: as §2

ADI-26912 = biological target: T35, ADI-26912; test: SPR Carterra, yeast anti-ID
T35 construct: anti-CD3 antibody made in CHO cells, captured by anti-human Fc
Procedure, shortened: as §2

CTL-62240 = biological target: T36, CTL-62240; test: SPR Carterra, yeast anti-ID
T36 construct: also called ONO-4685
T36 sequence (VH, as listed by the source, chain 1 of 2): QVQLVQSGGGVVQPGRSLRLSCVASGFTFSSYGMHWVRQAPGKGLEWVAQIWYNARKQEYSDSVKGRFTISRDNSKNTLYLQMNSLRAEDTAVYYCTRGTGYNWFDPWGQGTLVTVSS
T36 sequence (VL, as listed by the source, chain 2 of 2): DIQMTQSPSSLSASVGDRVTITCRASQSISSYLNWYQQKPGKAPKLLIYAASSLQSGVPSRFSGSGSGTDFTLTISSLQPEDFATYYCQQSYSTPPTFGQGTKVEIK
Procedure, shortened: as §2

ADI-74965 = biological target: T37, ADI-74965; test: SPR Carterra, yeast anti-ID
T37 construct: pH-dependent anti-CD3 antibody made in CHO cells
Procedure, shortened: as §2

ADI-48650 = biological target: T38, ADI-48650; test: SPR Carterra, yeast anti-ID
T38 construct: pH-dependent anti-CD3 antibody made in CHO cells
T38 sequence (VH, as listed by the source, chain 1 of 2): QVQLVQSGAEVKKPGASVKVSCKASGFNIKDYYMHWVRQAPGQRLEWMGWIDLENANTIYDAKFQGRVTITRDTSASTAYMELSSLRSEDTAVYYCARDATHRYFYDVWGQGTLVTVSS
T38 sequence (VL, as listed by the source, chain 2 of 2): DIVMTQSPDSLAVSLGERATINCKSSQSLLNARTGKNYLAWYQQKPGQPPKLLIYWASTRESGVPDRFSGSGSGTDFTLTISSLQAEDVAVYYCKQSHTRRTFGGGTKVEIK
Procedure, shortened: as §2

T2 sequence (VH, as listed by the source limits assumed, chain 1 of 2): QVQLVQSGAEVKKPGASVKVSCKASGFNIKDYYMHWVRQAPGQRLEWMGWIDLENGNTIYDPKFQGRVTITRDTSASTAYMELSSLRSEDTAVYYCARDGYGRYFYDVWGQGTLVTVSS
T2 sequence (VL, as listed by the source limits assumed, chain 2 of 2): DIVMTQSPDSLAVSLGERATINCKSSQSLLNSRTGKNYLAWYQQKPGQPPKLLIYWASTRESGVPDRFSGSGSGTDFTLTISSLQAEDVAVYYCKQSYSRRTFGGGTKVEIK

B1: ADI-34131 (antibody, V domains shown)
VH: QVQLVQSGAEVKKPGSSVKVSCKASGGTFSSYAISWVRQAPGQGLEWMGGIIPIFGTANYAQKFQGRVTITADESTSTAYMELSSLRSEDTAVYYCARGAPNYYGSGGYDDGWFDPWGQGTLVTVSS
VL: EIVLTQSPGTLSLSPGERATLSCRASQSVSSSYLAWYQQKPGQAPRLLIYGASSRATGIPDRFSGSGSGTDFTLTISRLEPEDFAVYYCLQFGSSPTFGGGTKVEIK
notes: anti-ID IgG
B1 gave a Kd (ADI-22523 Fab) of 13.5 nM, a Kd (ADI-22523 IgG) of 0.73 nM and a Kd (ADI-76357) of 35 nM. It also gave a Kd (ADI-76358) of 91 nM, a Kd (ADI-26916 IgG) of 84 nM and a Kd (ADI-70330) of 80 nM. It also gave a Kd (ADI-74966) of 31 nM, a Kd (ADI-26906 IgG) of 27 nM and a Kd (ADI-50024) of 18 nM. The binding result (ADI-74968) was “binds”, the Kd (ADI-26913 IgG) was 20 nM and the Kd (CTL-62223) was 54 nM. The binding result (ADI-48587) was “binds”, the Kd (ADI-70327) was 130 nM and the Kd (ADI-76360) was 43 nM. It also gave a Kd (ADI-67450) of 69 nM, a Kd (ADI-70326) of 130 nM and a Kd (ADI-74967) of 22 nM. For the same binder, the Kd (ADI-26919) was 25 nM, the Kd (ADI-76362) was 16 nM and the Kd (ADI-26921 IgG) was 18 nM. It also gave a Kd (ADI-76359) of 8.7 nM, a Kd (ADI-26924) of 17 nM and a Kd (ADI-67447) of 13 nM. The Kd (ADI-26909) was 13 nM, the Kd (ADI-26920 IgG) was 11 nM and the Kd (ADI-67445) was 25 nM. The Kd (ADI-26943) was 22 nM, the Kd (ADI-76361) was 19 nM and the binding result (ADI-48592) was “no binding (tested: up to 200 nM)”. B1: no binding (tested: up to 200 nM) (CTL-62228); no binding (tested: up to 200 nM) (CTL-62227); no binding (tested: up to 200 nM) (ADI-26915). B1: no binding (tested: up to 200 nM) (ADI-48576); no binding (tested: up to 200 nM) (ADI-26912); no binding (tested: up to 200 nM) (CTL-62240). B1: no binding (tested: up to 200 nM) (ADI-74965); no binding (tested: up to 200 nM) (ADI-48650).

Reference: US20250019439A1 (Adimab, published 2025)
